Experimental data published in publication PMC3937308.

Target: 6HisRsmA (RsmAxcc) (Xanthomonas citri subsp. citri strain 306) (UniProt Q8PLP9)
Test: EMSA
Details: 10 mM HEPES pH 7.3, 20 mM KCl, 1 mM MgCl2, 1 mM DTT, 5% glycerol, 0.1 µg/µL yeast tRNA, 20 U RNasin, 25 °C 20 min; 5% native PAGE

Sequence of 6HisRsmA (RsmAxcc) (Xanthomonas citri subsp. citri strain 306) (Q8PLP9 whole entry): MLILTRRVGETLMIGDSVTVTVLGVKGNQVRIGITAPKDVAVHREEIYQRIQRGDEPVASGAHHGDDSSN

## hrpG 54-189
  binding signal (fold less shift than hrpG 1-189): 8
